From PMC9247503, “Oligomerization and Spatial Distribution of Kvβ1.1 and Kvβ2.1 Regulatory Subunits” (Frontiers in Physiology, 2022)
“And” between values parts separate entries of the source, which are not always exact repeats. Equal values may be shown once.

T1: Kvβ1.1CFP (mouse (from the prefix m in mKvβ1.1), UniProt P63143 1-401)
T1 construct: voltage-gated potassium channel regulatory subunit Kvβ1.1 (splice form 1.1 of Kvβ1), mouse by the prefix m in mKvβ1.1; also called mKvβ1.1 in pECFP-N1; Kvb1.1CFP; source: HEK-293, transfected; in lysate (co-IP) and in cells or membrane sheets (FRET)
T1 sequence (looked up): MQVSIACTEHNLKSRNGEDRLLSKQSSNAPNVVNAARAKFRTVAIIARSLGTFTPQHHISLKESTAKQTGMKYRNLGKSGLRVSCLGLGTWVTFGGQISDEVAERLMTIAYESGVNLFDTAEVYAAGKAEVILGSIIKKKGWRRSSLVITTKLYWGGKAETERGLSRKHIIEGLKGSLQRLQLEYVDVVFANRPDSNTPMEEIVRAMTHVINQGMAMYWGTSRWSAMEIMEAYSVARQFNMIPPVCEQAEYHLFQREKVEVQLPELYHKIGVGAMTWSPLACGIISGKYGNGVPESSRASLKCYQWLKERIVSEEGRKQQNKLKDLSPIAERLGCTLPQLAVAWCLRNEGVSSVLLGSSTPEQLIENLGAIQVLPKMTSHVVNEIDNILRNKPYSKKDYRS

T2: Kvβ2.1YFP (mouse (from the prefix m in mKvβ2.1)), P62482
T2 chain: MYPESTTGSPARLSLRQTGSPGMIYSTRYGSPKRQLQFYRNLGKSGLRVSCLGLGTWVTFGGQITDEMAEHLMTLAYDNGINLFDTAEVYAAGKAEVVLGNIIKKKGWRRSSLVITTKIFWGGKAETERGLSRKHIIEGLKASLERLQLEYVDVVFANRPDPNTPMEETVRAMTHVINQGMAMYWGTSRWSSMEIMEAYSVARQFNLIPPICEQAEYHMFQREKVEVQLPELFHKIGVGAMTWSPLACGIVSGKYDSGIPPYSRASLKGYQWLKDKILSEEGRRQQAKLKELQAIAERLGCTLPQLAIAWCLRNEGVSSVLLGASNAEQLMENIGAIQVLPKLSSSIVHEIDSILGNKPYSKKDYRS

T3: Kvβ2.1CFP (mouse (from the prefix m in mKvβ2.1)), P62482
T3 chain: T2 chain

B1: Kvβ1.1YFP (natural protein, mouse (from the prefix m in mKvβ1.1), UniProt P63143 1-401, looked up)
chain: T1 sequence (looked up)
notes: voltage-gated potassium channel regulatory subunit Kvβ1.1 (splice form 1.1 of Kvβ1), mouse by the prefix m in mKvβ1.1; also called mKvβ1.1 in pEYFP-N1; source: HEK-293, transfected; in cells or membrane sheets (FRET) and in lysate (semidenaturing gel)
B2: Kvβ2.1YFP, P62482 1-367 (natural protein)
chain: T2 chain
B3: Kvβ2.1YFP (natural protein, mouse (from the prefix m in mKvβ2.1), UniProt P62482 1-367, looked up)
chain: T2 chain
notes: voltage-gated potassium channel regulatory subunit Kvβ2.1, mouse by the prefix m in mKvβ2.1; also called mKvβ2.1 in pEYFP-N1; Kvb2.1 YFP; source: HEK-293, transfected; in cells or membrane sheets (FRET) and in lysate (semidenaturing gel)
B4: Kvβ2.1CFP (natural protein, mouse (from the prefix m in mKvβ2.1), UniProt P62482 1-367, looked up)
chain: T2 chain
notes: voltage-gated potassium channel regulatory subunit Kvβ2.1, mouse by the prefix m in mKvβ2.1; also called mKvβ2.1 in pECFP-N1; source: HEK-293, transfected; in lysate (co-IP) and in cells or membrane sheets (FRET)
B5: Kv1.3YFP (natural protein, UniProt P15384 1-525, looked up)
chain: MTVVPGDHLLEPEAAGGGGGDPPQGGCVSGGGCDRYEPLPPALPAAGEQDCCGERVVINISGLRFETQLKTLCQFPETLLGDPKRRMRYFDPLRNEYFFDRNRPSFDAILYYYQSGGRIRRPVNVPIDIFSEEIRFYQLGEEAMEKFREDEGFLREEERPLPRRDFQRQVWLLFEYPESSGPARGIAIVSVLVILISIVIFCLETLPEFRDEKDYPASPSQDVFEAANNSTSGASSGASSFSDPFFVVETLCIIWFSFELLVRFFACPSKATFSRNIMNLIDIVAIIPYFITLGTELAERQGNGQQAMSLAILRVIRLVRVFRIFKLSRHSKGLQILGQTLKASMRELGLLIFFLFIGVILFSSAVYFAEADDPSSGFNSIPDAFWWAVVTMTTVGYGDMHPVTIGGKIVGSLCAIAGVLTIALPVPVIVSNFNYFYHRETEGEEQAQYMHVGSCQHLSSSAEELRKARSNSTLSKSEYMVIEEGGMNHSAFPQTPFKTGNSTATCTTNNNPNSCVNIKKIFTDV
notes: voltage-gated potassium channel Kv1.3 (α subunit); Used as the tetrameric positive control; source: HEK-293, transfected; in cells (FRET) and in lysate (semidenaturing gel)

Columns and labels:
Kvβ1.1CFP = target: T1, Kvβ1.1CFP; experiment: FRET or BRET; linear unmixing FRET (lux-FRET) on suspensions of living HEK-293 cells in PBS at 37°C, different donor molar ratios; fit of apparent EfD and EfA against xD gives E and n (units per complex); details: partners not purified
[1] = target: the molecule itself; experiment: semidenaturing SDS-PAGE with immunoblot; total lysates of transfected HEK-293 cells, not boiled, 8% SDS-PAGE, immunoblot with anti-GFP antibody
[2] = target: T2, Kvβ2.1YFP (mouse (from the prefix m in …)); experiment: as above; details: remark: other sources report otherwise
[3] = target: T3, Kvβ2.1CFP (mouse (from the prefix m in …)); experiment: FRET or BRET; linear unmixing FRET (lux-FRET) on suspensions of living HEK-293 cells in PBS at 37°C, different donor molar ratios; fit of apparent EfD and EfA against xD gives E and n (units per complex); details: remark: other sources report otherwise
Kvβ1.1YFP = target: B1; experiment: as above; details: partners not purified

Row | FRET efficiency (E) (Kvβ1.1CFP) [%] | stoichiometry N (Kvβ1.1CFP) | Binder | stoichiometry N [1] | also measured
1 | 30.2 | 1.93 | B1 | 2 and 4 | 
2 |  |  | B2 |  | stoichiometry N [2]: 2 and 4; FRET efficiency (E) [3]: 22.3%; stoichiometry N [3]: 2.09
3 | 32.5 | 1.88 | B3 |  | 
4 |  |  | B4 |  | FRET efficiency (E) (Kvβ1.1YFP): 30.4%; stoichiometry N (Kvβ1.1YFP): 1.99
5 |  |  | B5 | 2 and 4 | 
